Drawing on PMC5830440, this text covers Kd and koff for one substance.

The assay has as its target BG505 SOSIP.664 Env trimer (HIV-1 (BG505)). The assay can be described thus: BLI; biotinylated BG505 SOSIP.664 trimer (10 µg/mL) captured on Streptavidin biosensors; ScFv in 2-fold dilution series starting at 500 nM; 1:1 binding model, global fit; KD = koff/kon.

The term Kd denotes the constant that tells how readily two partners part at equilibrium. The low end stands for a tighter complex, the high end for a looser complex. The term koff denotes the first-order rate constant of dissociation. VRC01 ScFv (parental ScFv) displayed a Kd of under 1 pM and a koff of under 1e-07 s⁻¹.
